From patent publication US20170101472A1 (Regeneron, published 2017) come the findings set out here.

For experiment [1], the target named is T1, monkey LAG3 (mfLAG3) expressed on HEK293 cells (cynomolgus monkey, UniProt P18627 24-525 (human entry)).
T1 construct: also called HEK293/mfLAG3; HEK293-mfLAG3
T1 chain: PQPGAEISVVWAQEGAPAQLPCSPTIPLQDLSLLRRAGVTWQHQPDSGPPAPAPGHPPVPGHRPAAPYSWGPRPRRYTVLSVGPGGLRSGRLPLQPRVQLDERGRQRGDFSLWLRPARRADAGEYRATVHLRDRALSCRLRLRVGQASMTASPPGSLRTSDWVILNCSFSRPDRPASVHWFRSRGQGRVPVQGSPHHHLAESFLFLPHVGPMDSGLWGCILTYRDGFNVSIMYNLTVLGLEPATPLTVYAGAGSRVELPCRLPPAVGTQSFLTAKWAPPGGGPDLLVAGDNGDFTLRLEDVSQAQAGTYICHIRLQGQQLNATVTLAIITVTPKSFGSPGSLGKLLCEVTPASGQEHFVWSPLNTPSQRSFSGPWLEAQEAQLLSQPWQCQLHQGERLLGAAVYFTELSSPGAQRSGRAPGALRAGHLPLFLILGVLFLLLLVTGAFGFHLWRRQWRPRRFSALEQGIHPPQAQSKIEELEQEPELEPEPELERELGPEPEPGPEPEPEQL
As to the kind of experiment: electrochemiluminescence cell binding, HEK293-mfLAG3. On the procedure: To investigate the ability of a panel of anti-LAG3 monoclonal antibodies to bind cell-surface expressed LAG3, an in vitro binding assay utilizing human and monkey LAG3 expressing cell lines in an electrochemiluminescence based detection platform [Meso Scale Diagnostics, Rockville, Md.—(MSD)] was developed.
Experiments were carried out according to following procedure. Cells from the three cell lines described above were rinsed once in 1×PBS buffer without Ca²⁺/Mg²⁺ followed by 10-minute incubation at 37° C. with Enzyme Free Cell Dissociation Solution. […] Approximately 10,000 cells per well in the cell-washing buffer were seeded into the 96-well carbon electrode plates (MULTI-ARRAY high bind plate, MSD) and incubated for 1 hour at 37° C. to allow the cells to adhere. Nonspecific binding sites were blocked by 2% BSA (w/v) in PBS for 1 hour at room temperature. […] The plates were then washed to remove the unbound antibodies using an AquaMax2000 plate washer (MDS Analytical Technologies). The plate-bound antibodies were detected with a SULFO-TAG™-conjugated anti-human IgG antibody (MSD) for 1 hour at room temperature. After washes, the plates were developed with the Read Buffer (MSD) according to manufacturer's recommended procedure and the luminescent signals were recorded with a SECTOR Imager 6000 (MSD) instrument. The direct binding signals (in relative light units—RLU) were analyzed as a function of the antibody concentration and the data were fitted with a sigmoidal (four-parameter logistic) dose-response model using Graph Pad Prism™ software. The potency of each antibody was determined by calculating EC₅₀.

Experiment [2] deals with T2, human LAG3 chimera (extracellular domain of human LAG3 and trans-membrane/cytoplasmic domain of human CD300a) … (human, UniProt P18627 23-450; Q9UGN4 181-299, limits assumed).
T2 sequence (looked up): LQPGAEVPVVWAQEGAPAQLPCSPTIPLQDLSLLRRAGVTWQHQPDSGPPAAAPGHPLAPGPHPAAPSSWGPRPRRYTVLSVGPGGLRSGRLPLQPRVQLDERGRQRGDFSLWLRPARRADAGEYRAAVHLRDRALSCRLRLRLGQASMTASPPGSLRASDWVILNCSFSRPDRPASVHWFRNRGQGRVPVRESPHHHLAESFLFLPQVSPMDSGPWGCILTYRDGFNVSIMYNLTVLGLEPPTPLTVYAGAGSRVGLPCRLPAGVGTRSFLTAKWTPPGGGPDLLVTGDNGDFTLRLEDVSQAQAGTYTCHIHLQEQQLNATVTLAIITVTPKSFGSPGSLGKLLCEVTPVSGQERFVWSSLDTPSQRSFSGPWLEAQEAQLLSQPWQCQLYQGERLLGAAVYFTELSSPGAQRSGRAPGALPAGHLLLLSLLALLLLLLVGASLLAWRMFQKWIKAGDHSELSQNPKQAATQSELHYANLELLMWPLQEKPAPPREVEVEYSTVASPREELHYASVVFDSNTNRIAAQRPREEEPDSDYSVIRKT
As to the kind of experiment: cell-based or functional assay.

Experiment [3] has as its target T3, human LAG3 expressed on HEK293 cells (human, UniProt P18627 23-525).
T3 construct: also called hLAG3; HEK293/hLAG3
T3 sequence: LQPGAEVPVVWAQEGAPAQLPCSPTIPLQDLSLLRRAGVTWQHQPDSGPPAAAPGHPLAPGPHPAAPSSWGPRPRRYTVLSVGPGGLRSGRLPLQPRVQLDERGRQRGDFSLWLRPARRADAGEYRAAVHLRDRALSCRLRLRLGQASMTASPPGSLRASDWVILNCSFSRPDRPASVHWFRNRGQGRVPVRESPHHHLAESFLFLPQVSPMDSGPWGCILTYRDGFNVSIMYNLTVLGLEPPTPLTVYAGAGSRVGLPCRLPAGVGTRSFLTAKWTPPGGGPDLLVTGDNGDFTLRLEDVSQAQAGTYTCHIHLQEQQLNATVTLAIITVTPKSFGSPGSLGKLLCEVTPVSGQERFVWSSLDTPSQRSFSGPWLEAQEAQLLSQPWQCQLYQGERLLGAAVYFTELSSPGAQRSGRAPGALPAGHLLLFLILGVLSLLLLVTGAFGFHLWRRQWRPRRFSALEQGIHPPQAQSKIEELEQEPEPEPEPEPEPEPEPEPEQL
As to the kind of experiment: cell adherence assay, blocks RAJI (human MHCII) cells on HEK293-hLAG3. On the procedure:
Cells were plated into sterile Nunclon™ Delta 96-Well MicroWell™ Black Optical Bottom Plates (Thermo Scientific). The wells from the perimeter of the plate were not included in the assay design to avoid edge effects.
On the day of treatment, all antibodies were serially (1:3) diluted in RPMI media (without FBS or supplements added). The 9-point dilution ranged between 45 pM to 300 nM, with the last dilution point containing no mAb. […] While the plated HEK293-LAG3 cells were incubating with the test or control antibodies, non-adherent B-cells (RAJI or A20) were labeled with Calcein AM using the following procedure. RAJI and A20 suspension cells were harvested and centrifuged at 1,200 rpm for 5 minutes. Cell pellets were resuspended in 1×PBS and counted. Cells were washed with RPMI, and resuspended in RPMI at a concentration of 10⁶ cells per 1 ml. Cells were labeled by adding 5 μL of Calcein AM per 1 ml of cell suspension and incubated for 30 min at 37° C., at 5% CO₂. […] Subsequently, 10 μL of BD Pharmingen Fc Block (0.5 mg/mL) was added per 1 ml of the Calcein AM labeled cells, which were incubated at RT for 10 minutes. The Calcein AM-stained, Fc-blocked RAJI or A20 cells were resuspended in RPMI to a final concentration of 3×10⁶ cells per 1 ml and subsequently used in the adherence assay.
The labeled suspension cells were incubated with the HEK293 monolayer for 1 hour at 37° C., at 5% CO₂.

B1: H4sH15498P2 (antibody, V domains shown)
VH: EVQLVESGGGLVQPGGSLRLSCAASGFTFTSYAMTWVRQAPGKGLEWVSDISGSGGRTYYADSVKGRFTISRDNSKNMLYLQMNILRAEDTAVYHCAKGTGQQVDLYNYYYALDVWGQGTTVTVSS
VL: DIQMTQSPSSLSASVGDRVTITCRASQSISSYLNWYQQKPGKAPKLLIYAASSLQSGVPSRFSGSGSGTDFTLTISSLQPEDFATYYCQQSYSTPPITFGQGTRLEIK
notes: H4sH = human IgG4 Fc with 2 or more amino acid changes as disclosed in US20140243504
In experiment [1], B1 registered an EC50 of 20 nM. In experiment [2], the “EC50, AP1-Luc signaling, bispecific mode” value was over 100 nM and the “EC50, AP1-Luc signaling, peptide mode” value was 4.61 nM. The same molecule yielded an IC50 in experiment [3] of 16 nM.

B2: H4H15498P2 (antibody, human IgG4, V domains shown)
VH: EVQLVESGGGLVQPGGSLRLSCAASGFTFTSYAMTWVRQAPGKGLEWVSDISGSGGRTYYADSVKGRFTISRDNSKNMLYLQMNILRAEDTAVYHCAKGTGQQVDLYNYYYALDVWGQGTTVTVSS
VL: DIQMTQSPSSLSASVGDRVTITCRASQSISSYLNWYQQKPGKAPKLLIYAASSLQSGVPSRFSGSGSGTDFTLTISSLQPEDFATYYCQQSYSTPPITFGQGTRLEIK
notes: H4H = human IgG4 Fc with S108P hinge mutation
In experiment [1], B2 registered an EC50 of 9.68 nM. In addition, in experiment [2], the “EC50, AP1-Luc signaling, bispecific mode” value is 6.62 nM and the “EC50, AP1-Luc signaling, peptide mode” value was found to be 5.89 nM. This molecule came in with an IC50 in experiment [3] of 15 nM.

B3: H4H17826P2 (antibody, human IgG4, V domains shown)
VH: EVQLVESGGGLVQPGGSLRLSCAASGFTFSSYEMNWVRQAPGKGLEWVSYISSSGNTKDYAGSVKGRVTISRDNAKNLLYLQMNSLRAEDTAVYHCARDGGHYDILTGSMSYYYYALDVWGQGTTVTVSS
VL: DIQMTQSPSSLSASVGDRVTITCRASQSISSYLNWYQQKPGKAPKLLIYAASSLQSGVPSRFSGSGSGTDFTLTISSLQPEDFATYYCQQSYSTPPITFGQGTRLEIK
notes: as for B2
As for B3, in experiment [1], it took 7.85 nM to reach a half-maximal effect (EC50). Besides, in experiment [2], the “EC50, AP1-Luc signaling, bispecific mode” value amounted to 266 nM and the “EC50, AP1-Luc signaling, peptide mode” value was determined as 8.83 nM. In experiment [3], this molecule yielded an IC50 of 27 nM.

B4: H4H17828P2 (antibody, human IgG4, V domains shown)
VH: EVQLVESGGGLVQPGGSLRLSCAASGFTFKTYAMSWVRQAPGRGLEWVSGISGSGSTSYYADSVKGRFTISRDNYKKTLSLQMNSLRAEDTAVYYCALDIMATVGGLFNNWGQGTLVTVSS
VL: not shown
notes: as for B2
B4: the EC50 in experiment [1] worked out at 13.1 nM. Further, in experiment [2], the “EC50, AP1-Luc signaling, bispecific mode” value was over 100 nM and the “EC50, AP1-Luc signaling, peptide mode” value is 4.91 nM. Besides, the IC50 in experiment [3] amounted to 11 nM.

B5: H4H17819P (antibody, human IgG4, V domains shown)
VH: EVQLVESGGGLVQPGGSLRLSCVASGFTFSLYAMTWVRQVPGKGLEWVSTISGSGGGTYYTDSVKGRFTISRDNSKNTLYLQMNSLRADDTAVFYCTKESTTGTYSYFYGMDVWGQGTTVTVSS
VL: DIQMTQSPSSLSASVGDRVTITCRASQTISSYLNWYQQKPGKAPKLLIYAASSLQSGVPSRFSGSGSGTDFTLTLSGLQPEDFATYYCQQSYSTPLTFGGGTKVEIK
notes: as for B2
With B5, the EC50 in experiment [1] turned out to be 40.2 nM. Further, in experiment [2], the “EC50, AP1-Luc signaling, bispecific mode” value was over 100 nM and the “EC50, AP1-Luc signaling, peptide mode” value came out at 2.12 nM. In experiment [3], the IC50 is 17 nM.

As usually defined, the EC50 is the midpoint of the concentration-response curve. The term IC50 denotes the concentration at which inhibition is half-maximal.
